Measurements taken from US20200199217A1.
Changes are numbered by the printed parent chain. Each block holds one binder with its values, some of them ahead of it.

Key:
Assay in all cases: ELISA, yeast Fab supernatant
[1] = target: hu-IL-36α (human) (UniProt Q9UHA7)
[2] = target: hu-IL-36γ (human) (UniProt Q9NZH8)
[3] = target: T1, hu-IL-36β (human)
T1 sequence: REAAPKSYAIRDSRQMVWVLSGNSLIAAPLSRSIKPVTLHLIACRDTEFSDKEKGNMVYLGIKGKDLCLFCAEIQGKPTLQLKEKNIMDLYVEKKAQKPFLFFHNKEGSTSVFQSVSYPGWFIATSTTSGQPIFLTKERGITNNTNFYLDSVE

Sequence of hu-IL-36α (human) (Q9UHA7 6-158 limits assumed): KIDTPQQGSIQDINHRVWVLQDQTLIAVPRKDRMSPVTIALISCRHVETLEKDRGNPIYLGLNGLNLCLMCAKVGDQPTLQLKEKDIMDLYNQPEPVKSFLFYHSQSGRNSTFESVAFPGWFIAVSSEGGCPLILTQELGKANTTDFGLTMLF
Sequence of hu-IL-36γ (human) (Q9NZH8 18-169 limits assumed): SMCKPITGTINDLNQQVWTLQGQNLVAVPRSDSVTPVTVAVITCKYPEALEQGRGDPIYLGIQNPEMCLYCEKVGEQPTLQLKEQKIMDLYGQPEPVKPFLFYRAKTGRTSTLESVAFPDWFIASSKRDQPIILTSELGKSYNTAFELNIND

- ELISA OD450 [1]: 0.0698 OD450
- ELISA OD450 [2]: 0.073 OD450
B1: mAb8.0 Fab (Fab, V domains shown)
VH: QVQLVQSGAEVKKPGSSVKVSCKASGGTFSNYAISWVRQAPGQGLEWMGGILPILGTVDYAQKFQGRVTITADESTSTAYMELSSLRSEDTAVYYCAREPWYRLGAFDVWGQGTLVTVSS
VL: DIQMTQSPSSLSASVGDRVTITCRASQTIYKYLNWYQQKPGKAPKLLIYAASSLQSGVPSRFSGSGSGTDFTLTISSLQPEDFATYYCQQYSSIPYTFGQGTKVEIK

- ELISA OD450 [1]: 0.0638 OD450
- ELISA OD450 [2]: 0.0656 OD450
B4: mAb6.0 Fab (Fab, V domains shown)
VH: QLQLQESGPGLVKPSETLSLTCTVSGGSITSSNYYWGWIRQPPGKGLEWIGSIDYTGSTYYNPSLKSRVTISVDTSKNQFSLKLSSVTAADTAVYYCARGKYYETYLGFDVWGQGTLVTVSS
VL: QSVLTQPPSVSGAPGQRVTISCTGSSSNIGAGYDVHWYQQLPGTAPKLLIYGNTNRPSGVPDRFSGSKSGTSASLAITGLQAEDEADYYCQSYDISLSGWVFGGGTKLTVL

- ELISA OD450 [1]: 0.0604 OD450
- ELISA OD450 [2]: 0.0724 OD450
B8: mAb7.0 Fab (Fab, V domains shown)
VH: QVQLVESGGGVVQPGRSLRLSCAASGFTFSSYGMHWVRQAPGKGLEWVAVISYGGSERYYADSVKGRFTISRDNSKNTLYLQMNSLRAEDTAVYYCAREPWYSSRGWTGYGFDVWGQGTLVTVSS
VL: EIVLTQSPGTLSLSPGERATLSCRASQSVSSNYLAWYQQKPGQAPKLLIYSASSLQSGVPSRFSGSGSGTDFTLTISSLQPEDFATYYCQQTYSYPPTFGQGTKVEIK

Continued, binder first:

B2: mAb2.0 Fab (Fab, V domains shown)
VH: QLQLQESGPGLVKPSETLSLTCTVSGGSISTSSYYWGWIRQPPGKGLEWIGSIYYTGNTYYNPSLKSRVTISVDTSKNQFSLKLSSVTAADTAVYYCARVRYGVGVPRYFDPWGQGTLVTVSS
VL: B4 VL with G32H, T54D, I95Y, W100Y
- ELISA OD450 [3]: 0.0604 OD450

B3: mAb1.0 Fab (Fab, V domains shown)
VH: QVQLVESGGGVVQPGRSLRLSCAASGFSFSAYAMHWVRQAPGKGLEWVAVISYDGTNEYYADSVKGRFTISRDNSKNTLYLQMNSLRAEDTAVYYCARGIRIFTSYFDSWGQGTLVTVSS
VL: B4 VL with G32H, G52S, T54N, I95Y, S98R, W100Y
- ELISA OD450 [3]: 0.0523 OD450

B5: mAb5.0 Fab (Fab, V domains shown)
VH: EVQLLESGGGLVQPGGSLRLSCAASGFTFSTYAMSWVRQAPGKGLEWVSGISGGSGYTYYADSVKGRFTISRDNSKNTLYLQMNSLRAEDTAVYYCARVVTYRDPPASFDYWGQGTLVTVSS
VL: B4 VL with G32H, T54D, I95Y, S98K, G99A, W100Y
- ELISA OD450 [3]: 0.129 OD450

B6: mAb3.0 Fab (Fab, V domains shown)
VH: B2 VH with T31S, S32T, Y54H, T56S, R101H, V104G, G105Y, V106I, Y109R, P112H
VL: B4 VL with I95Y, S98R, W100Y
- ELISA OD450 [3]: 0.11 OD450

B7: mAb4.0 Fab (Fab, V domains shown)
VH: QLQLQESGPGLVKPSETLSLTCTVSGGSIGSRSYYWGWIRQPPGKGLEWIGSIHYSGTTYYNPSLKSRVTISVDTSKNQFSLKLSSVTAADTAVYYCARVAPSYPRVFDYWGQGTLVTVSS
VL: B4 VL with T54R, I95Y, S98R, G99V, W100Y
- ELISA OD450 [3]: 0.0513 OD450
